T1: HA69 peptide on HLA DQB1*06:02/DQA1*01:02 (DQ0602) (human)
T1 peptide: AMERNAGSGIIISDT

B1: TCR CIVRVGTNMDSNYQLIW / CASSKSYNEQFF (TCR)
alpha TRAV26-1 TRAJ33 CDR3: CIVRVGTNMDSNYQLIW
beta TRBV19 TRBJ2-1 CDR3: CASSKSYNEQFF
B2: TCR CASAYTGTASKLTF / CASSIDLGGRADGGYTF (TCR)
alpha TRAV17 TRAJ44 CDR3: CASAYTGTASKLTF
beta TRBV19 TRBJ1-2 CDR3: CASSIDLGGRADGGYTF
B3: TCR CATVGYNTDKLIF / CASSQGQAATNEKLFF (TCR)
alpha TRAV17 TRAJ34 CDR3: CATVGYNTDKLIF
beta TRBV4-3 TRBJ1-4 CDR3: CASSQGQAATNEKLFF
B4: …-1 (TCR)
alpha TRAV12-3 TRAJ39 CDR3: CATSYNNAGNMLTF
beta TRBV4-2 TRBJ2-5 CDR3: CASSQGTSGEETQYF
B5: TCR CIVRVLTNQGGKLIF / CSAGSGLGGYNEQFF (TCR)
alpha TRAV26-1 TRAJ23 CDR3: CIVRVLTNQGGKLIF
beta TRBV20-1 TRBJ2-1 CDR3: CSAGSGLGGYNEQFF
B6: …-1 (TCR)
alpha TRAV20 TRAJ52 CDR3: CAVQAPGTSYGKLTF
beta TRBV24-1 TRBJ2-3 CDR3: CATSVGTSGYTQYF
B7: TCR CIASGTYKYIF / CASSKGETGTQWSYEQYF (TCR)
alpha TRAV26-1 TRAJ40 CDR3: CIASGTYKYIF
beta TRBV4-2 TRBJ2-7 CDR3: CASSKGETGTQWSYEQYF
B8: …-1 (TCR)
alpha TRAV5 TRAJ8 CDR3: CAEMDTGFQKLVF
beta TRBV6-5 TRBJ1-1 CDR3: CASSGQGSTEAFF
B9: …-1 (TCR)
alpha TRAV38-2/DV8 TRAJ39 CDR3: CAYRSANNAGNMLTF
beta TRBV6-5 TRBJ1-5 CDR3: CASRTSGGNQPQHF
B10: …-1 (TCR)
alpha TRAV10 TRAJ26 CDR3: CVVSPTGGQNFVF
beta TRBV6-2 TRBJ2-6 CDR3: CASSYWGLGANVLTF
B11: …-1 (TCR)
alpha TRAV19 TRAJ45 CDR3: CALSEDAGGGADGLTF
beta TRBV12-3 TRBJ2-5 CDR3: CASRRHQQETQYF
B12: …-1 (TCR)
alpha TRAV27 TRAJ26 CDR3: CKYGQNFVF
beta TRBV19 TRBJ2-3 CDR3: CASSRPGLNTDTQYF
B13: TCR512 (TCR)
alpha TRAV13-1 TRAJ23 CDR3: CAAPYNQGGKLIF
beta TRBV19 TRBJ1-5 CDR3: CASSIVRGLYSNQPQHF
B14: …-1 (TCR)
alpha TRAV8-6 TRAJ42 CDR3: CAVMGYGGSQGNLIF
beta TRBV4-3 TRBJ2-1 CDR3: CASSQELGVYNEQFF
B15: …-1 (TCR)
alpha TRAV9-2 TRAJ4 CDR3: CALPSLSGGYNKLIF
beta TRBV7-8 TRBJ1-3 CDR3: CASSLAGNGNTIYF
B16: …-1 (TCR)
alpha TRAV9-2 TRAJ8 CDR3: CALSEGSTGFQKLVF
beta TRBV7-8 TRBJ1-3 CDR3: CASSVAGNGNTIYF
B17: …-1 (TCR)
alpha TRAV2 TRAJ40 CDR3: CAVEDRDSGTYKYIF
beta TRBV18 TRBJ2-1 CDR3: CASSPSRGAPEYNEQFF
B18: TCR CAVSRAGANNLFF / CASSQGLGPGLFNQPQHF (TCR)
alpha TRAV21 TRAJ36 CDR3: CAVSRAGANNLFF
beta TRBV4-3 TRBJ1-5 CDR3: CASSQGLGPGLFNQPQHF
B19: TCR CATDSYNTDKLIF / CASSQGAGAQTYYGYTF (TCR)
alpha TRAV17 TRAJ34 CDR3: CATDSYNTDKLIF
beta TRBV4-3 TRBJ1-2 CDR3: CASSQGAGAQTYYGYTF
B20: TCR CAANLDNFNKFYF / CATSRGIQPNEKLFF (TCR)
alpha TRAV25 TRAJ21 CDR3: CAANLDNFNKFYF
beta TRBV15 TRBJ1-4 CDR3: CATSRGIQPNEKLFF
B21: TCR CATDAYNTDKLIF / CASSQGAVPAGNTIYF (TCR)
alpha TRAV17 TRAJ34 CDR3: CATDAYNTDKLIF
beta TRBV4-3 TRBJ1-3 CDR3: CASSQGAVPAGNTIYF
B22: …-1 (TCR)
alpha TRAV10 TRAJ41 CDR3: CVVSEGGYALNF
beta TRBV5-1 TRBJ1-5 CDR3: CASSDGTDSNQPQHF
B23: TCR CVHNAGNMLTF / CASSFQGLSTDTQYF (TCR)
alpha TRAV25 TRAJ39 CDR3: CVHNAGNMLTF
beta TRBV12-3 TRBJ2-3 CDR3: CASSFQGLSTDTQYF
B24: TCR CIVSPHGSGNTGKLIF / CASSIGARGQLFF (TCR)
alpha TRAV26-1 TRAJ37 CDR3: CIVSPHGSGNTGKLIF
beta TRBV19 TRBJ1-4 CDR3: CASSIGARGQLFF
B25: TCR766 (TCR)
alpha TRAV17 TRAJ34 CDR3: CATASYNTDKLIF
beta TRBV4-3 TRBJ1-5 CDR3: CASSQGATGGSNQPQHF
B26: …-1 (TCR)
alpha TRAV38-2/DV8 TRAJ39 CDR3: CAYRSFNNAGNMLTF
beta TRBV28 TRBJ1-6 CDR3: CASTETGSNSPLHF
B27: …-1 (TCR)
alpha TRAV8-4 TRAJ9 CDR3: CAVNGGFKTIF
beta TRBV6-1 TRBJ2-1 CDR3: CASRDRNQYNEQFF
B28: TCR CAVGATDSWGKFQF / CASSIDATGHSNQPQHF (TCR)
alpha TRAV8-3 TRAJ24 CDR3: CAVGATDSWGKFQF
beta TRBV19 TRBJ1-5 CDR3: CASSIDATGHSNQPQHF
B29: …-1 (TCR)
alpha TRAV2 TRAJ20 CDR3: CAVEDKHDYKLSF
beta TRBV9 TRBJ1-2 CDR3: CASSFKEGSNYGYTF
B30: …-1 (TCR)
alpha TRAV21 TRAJ30 CDR3: CAVGDDKIIF
beta TRBV12-3 TRBJ1-1 CDR3: CASSSRSGLKAFF
B31: TCR CVVRGQAGTALIF / CASSGHWNTEAFF (TCR)
alpha TRAV10 TRAJ15 CDR3: CVVRGQAGTALIF
beta TRBV19 TRBJ1-1 CDR3: CASSGHWNTEAFF
B32: TCR CAGSSANQAGTALIF / CSARGGQGAPSPLHF (TCR)
alpha TRAV35 TRAJ15 CDR3: CAGSSANQAGTALIF
beta TRBV20-1 TRBJ1-6 CDR3: CSARGGQGAPSPLHF
B33: TCR CALSEAFPPLYNFNKFYF / CASSLFATSGKDTQYF (TCR)
alpha TRAV19 TRAJ21 CDR3: CALSEAFPPLYNFNKFYF
beta TRBV5-6 TRBJ2-3 CDR3: CASSLFATSGKDTQYF
B34: TCR CALGPGDNQGGKLIF / CASSLAQAPAGETQYF (TCR)
alpha TRAV9-2 TRAJ23 CDR3: CALGPGDNQGGKLIF
beta TRBV11-1 TRBJ2-5 CDR3: CASSLAQAPAGETQYF
B35: TCR CATVAYNTDKLIF / CASSPGRTGGTYYGYTF (TCR)
alpha TRAV17 TRAJ34 CDR3: CATVAYNTDKLIF
beta TRBV4-3 TRBJ1-2 CDR3: CASSPGRTGGTYYGYTF
B36: TCR CAASMSTNQGGKLIF / CSADRYAYEQYF (TCR)
alpha TRAV13-1 TRAJ23 CDR3: CAASMSTNQGGKLIF
beta TRBV20-1 TRBJ2-7 CDR3: CSADRYAYEQYF
B37: TCR821 (TCR)
alpha TRAV26-1 TRAJ23 CDR3: CIVMLTTNQGGKLIF
beta TRBV19 TRBJ2-4 CDR3: CASSPGLAGGGSIQYF
B38: TCR839 (TCR)
alpha TRAV12-2 TRAJ37 CDR3: CAVNPPWSNTGKLIF
beta TRBV19 TRBJ2-5 CDR3: CASTRGVGTSGAKETQYF
B39: TCR CAAFENVLHC / CASSERPYPGETQYF (TCR)
alpha TRAV13-1 TRAJ35 CDR3: CAAFENVLHC
beta TRBV6-1 TRBJ2-5 CDR3: CASSERPYPGETQYF
B40: …-1 (TCR)
alpha TRAV17 TRAJ54 CDR3: CATDAAGAQKLVF
beta TRBV19 TRBJ2-1 CDR3: CASSILAGVYNEQFF
B41: TCR872 (TCR)
alpha TRAV17 TRAJ34 CDR3: CATVGYNTDKLIF
beta TRBV4-3 TRBJ1-4 CDR3: CASSQGLGPTNEKLFF
B42: TCR CAAPGANNLFF / CASSQPHRTSVTGELFF (TCR)
alpha TRAV13-1 TRAJ36 CDR3: CAAPGANNLFF
beta TRBV4-2 TRBJ2-2 CDR3: CASSQPHRTSVTGELFF
B43: TCR806 (TCR)
alpha TRAV26-1 TRAJ33 CDR3: CIVRGGTNMDSNYQLIW
beta TRBV19 TRBJ1-6 CDR3: CASTGQGNSPLHF
B44: …-1 (TCR)
alpha TRAV29/DV5 TRAJ48 CDR3: CAAKGGGNEKLTF
beta TRBV12-3 TRBJ1-3 CDR3: CASTPRVLQFSGNTIYF
B45: TCR CAVSEGRSNQGGKLIF / CASSSQGRENEQYF (TCR)
alpha TRAV8-6 TRAJ23 CDR3: CAVSEGRSNQGGKLIF
beta TRBV19 TRBJ2-7 CDR3: CASSSQGRENEQYF
B46: TCR CATDGGGIGAGSYQLTF / CATSRGGSPPYEQYF (TCR)
alpha TRAV17 TRAJ28 CDR3: CATDGGGIGAGSYQLTF
beta TRBV15 TRBJ2-7 CDR3: CATSRGGSPPYEQYF
B47: …-1 (TCR)
alpha TRAV21 TRAJ46 CDR3: CAVRPKEGSGDKLTF
beta TRBV2 TRBJ2-2 CDR3: CASSESGRGPGELFF
B48: TCR CAVSDRDSGNTPLVF / CASSQGDVNYGYTF (TCR)
alpha TRAV8-6 TRAJ29 CDR3: CAVSDRDSGNTPLVF
beta TRBV4-3 TRBJ1-2 CDR3: CASSQGDVNYGYTF
B49: TCR CAVQELARLMF / CASSVEGYSSPLHF (TCR)
alpha TRAV20 TRAJ31 CDR3: CAVQELARLMF
beta TRBV6-1 TRBJ1-6 CDR3: CASSVEGYSSPLHF
B50: TCR CATGSYNTDKLIF / CASSPGLAGGTGELFF (TCR)
alpha TRAV17 TRAJ34 CDR3: CATGSYNTDKLIF
beta TRBV4-3 TRBJ2-2 CDR3: CASSPGLAGGTGELFF
B51: TCR CAAPGANNLFF / CASSGTGGQGYNEQFF (TCR)
alpha TRAV13-1 TRAJ36 CDR3: CAAPGANNLFF
beta TRBV2 TRBJ2-1 CDR3: CASSGTGGQGYNEQFF
B52: TCR819 (TCR)
alpha TRAV17 TRAJ34 CDR3: CATAAYNTDKLIF
beta TRBV4-3 TRBJ1-2 CDR3: CASSQAMTGGSDYGYTF
B53: TCR538 (TCR)
alpha TRAV4 TRAJ42 CDR3: CLVGAPSLYGGSQGNLIF
beta TRBV7-8 TRBJ2-1 CDR3: CASNPAGAVSYNEQFF
B54: TCR100 (TCR)
alpha TRAV8-3 TRAJ24 CDR3: CAVVTTDSWGKFQF
beta TRBV19 TRBJ1-5 CDR3: CASSDSPTGHGNQPQHF
B55: TCR867 (TCR)
alpha TRAV17 TRAJ34 CDR3: CATDAYNTDKLIF
beta TRBV4-3 TRBJ1-3 CDR3: CASSQGRTASGNTIYF
B56: TCR CATDSYNTDKLIF / CASSQGLGPTNYGYTF (TCR)
alpha TRAV17 TRAJ34 CDR3: CATDSYNTDKLIF
beta TRBV4-3 TRBJ1-2 CDR3: CASSQGLGPTNYGYTF
B57: TCR CILRGGTNQGGKLIF / CSAEGQGAGNTIYF (TCR)
alpha TRAV26-2 TRAJ23 CDR3: CILRGGTNQGGKLIF
beta TRBV20-1 TRBJ1-3 CDR3: CSAEGQGAGNTIYF
B58: …-1 (TCR)
alpha TRAV26-2 TRAJ41 CDR3: CILRDSNSGYALNF
beta TRBV7-8 TRBJ1-5 CDR3: CASSSGTHRSPQHF
B59: TCR CIVRVGTNQGGKLIF / CASSMGLALETQYF (TCR)
alpha TRAV26-1 TRAJ23 CDR3: CIVRVGTNQGGKLIF
beta TRBV19 TRBJ2-5 CDR3: CASSMGLALETQYF

Molecular target: T1, HA69 peptide on HLA …
Experiment: activation reporter or marker
B1: recognises. B2: recognises. B3: recognises. B4: no recognition. B5: recognises. B6: no recognition. B7: recognises. B8: no recognition. B9: no recognition. B10: no recognition. B11: no recognition. B12: no recognition. B13: recognises. B14: no recognition. B15: no recognition. B16: no recognition. B17: no recognition. B18: recognises. B19: recognises. B20: recognises. B21: recognises. B22: no recognition. B23: recognises. B24: recognises. B25: recognises. B26: no recognition. B27: no recognition. B28: recognises. B29: no recognition. B30: no recognition. B31: recognises. B32: recognises. B33: recognises. B34: recognises. B35: recognises. B36: recognises. B37: recognises. B38: recognises. B39: recognises. B40: no recognition. B41: recognises. B42: recognises. B43: recognises. B44: no recognition. B45: recognises. B46: recognises. B47: no recognition. B48: recognises. B49: recognises. B50: recognises. B51: recognises. B52: recognises. B53: recognises. B54: recognises. B55: recognises. B56: recognises. B57: recognises. B58: no recognition. B59: recognises.

Reference: publication PMC9371724 (2022)
